The target in this assay is T1, GtgA(20–228)^E183Q (Salmonella Typhimurium strain ATCC …, UniProt A0A0F6AZI6 20-228, E183Q).
T1 construct: residues left by TEV cleavage of the His6–GST tag, before the first residue of GtgA; Cloned in pETM30 (TEV-cleavable N-terminal His6 and GST); source: E. coli BL21 PC2, purified (GSH–Sepharose, TEV cleavage, Superdex 75 SEC); not shown: His6, N-terminal, cleaved; GST, N-terminal, cleaved
T1 sequence: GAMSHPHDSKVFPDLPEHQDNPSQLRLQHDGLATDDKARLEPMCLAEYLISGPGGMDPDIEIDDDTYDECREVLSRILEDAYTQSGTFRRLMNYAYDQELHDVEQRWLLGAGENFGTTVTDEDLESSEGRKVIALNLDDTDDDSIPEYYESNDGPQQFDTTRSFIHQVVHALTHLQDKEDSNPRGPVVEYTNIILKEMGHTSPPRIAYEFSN
In words: crystal structure; GtgA(20–228)^E183Q–p65(20–188) complex, 175 μM of each protein mixed immediately prior to crystallization; sitting drop, 20 °C, 0.1 M Tris pH 8.3, 0.5 M LiCl, 32.5% (w/v) PEG 6000; Zn2+-free; single heterodimer in the asymmetric unit. The note with it: both partners purified.

B1: p65(20–188) (domain or fragment, murine)
chain: AYVEIIEQPKQRGMRFRYKCEGRSAGSIPGERSTDTTKTHPTIKINGYTGPGTVRISLVTKDPPHRPHPHELVGKDCRDGYYEADLCPDRSIHSFQNLGIQCVKKRDLEQAISQRIQTNNNPFHVPIEEQRGDYDLNAVRLCFQVTVRDPAGRPLLLTPVLSHPIFDNRA
notes: single alanine left by ULP1 cleavage of the His6–SUMO tag, before the first residue of p65; NF-κB subunit p65 (RelA), murine, amplified from RAW264.7 cDNA, N-terminal domain residues 20–188; Cloned in pE-SUMO (LifeSensors); also called p65 NTD; p65 N-terminal domain; source: E. coli BL21 PC2, purified (Ni-NTA, ULP1 cleavage, Superdex 75 SEC); not shown: His6, N-terminal, cleaved; SUMO, …
Turning to B1, the binding result was “binds”.
